Experimental data: IntAct's records for PubMed 22609948

B1: Segment polarity protein dishevelled homolog DVL-2 (Mus musculus), Q60838 (parent)
chain: MAGSSAGGGGVGETKVIYHLDEEETPYLVKIPVPAERITLGDFKSVLQRPAGAKYFFKSMDQDFGVVKEEISDDNARLPCFNGRVVSWLVSSDTPQPEVAPPAHESRTELVPPPPPLPPLPPERTSGIGDSRPPSFHPNVSSSHENLEPETETESVVSLRRDRPRRRDSSEHGAGGHRPGGPSRLERHLAGYESSSTLMTSELESTSLGDSDEDDTMSRFSSSTEQSSASRLLKRHRRRRKQRPPRMERTSSFSSVTDSTMSLNIITVTLNMEKYNFLGISIVGQSNERGDGGIYIGSIMKGGAVAADGRIEPGDMLLQVNDMNFENMSNDDAVRVLRDIVHKPGPIVLTVAKCWDPSPQAYFTLPRNEPIQPIDPAAWVSHSAALTGAFPAYPGSSSMSTITSGSSLPDGCEGRGLSVHMDMASVTKAMAAPESGLEVRDRMWLKITIPNAFLGSDVVDWLYHHVEGFPERREARKYASGLLKAGLIRHTVNKITFSEQCYYVFGDLSGGCESYLVNLSLNDNDGSSGASDQDTLAPLPGATPWPLLPTFSYQYPAPHPYSPQPPPYHELSSYTYGGGSASSQHSEGSRSSGSTRSDGGAGRTGRPEERAPESKSGSGSESELSSRGGSLRRGGEPGGTGDGGPPPSRGSTGAPPNLRALPGLHPYGAPSGMALPYNPMMVVMMPPPPPPVSTAVQPPGAPPVRDLGSVPPELTASRQSFHMAMGNPSEFFVDVM

Variants of: B1
Settings: with plk1_human PLK1, P53350
plk1_human PLK1, P53350, sequence (P53350 whole entry): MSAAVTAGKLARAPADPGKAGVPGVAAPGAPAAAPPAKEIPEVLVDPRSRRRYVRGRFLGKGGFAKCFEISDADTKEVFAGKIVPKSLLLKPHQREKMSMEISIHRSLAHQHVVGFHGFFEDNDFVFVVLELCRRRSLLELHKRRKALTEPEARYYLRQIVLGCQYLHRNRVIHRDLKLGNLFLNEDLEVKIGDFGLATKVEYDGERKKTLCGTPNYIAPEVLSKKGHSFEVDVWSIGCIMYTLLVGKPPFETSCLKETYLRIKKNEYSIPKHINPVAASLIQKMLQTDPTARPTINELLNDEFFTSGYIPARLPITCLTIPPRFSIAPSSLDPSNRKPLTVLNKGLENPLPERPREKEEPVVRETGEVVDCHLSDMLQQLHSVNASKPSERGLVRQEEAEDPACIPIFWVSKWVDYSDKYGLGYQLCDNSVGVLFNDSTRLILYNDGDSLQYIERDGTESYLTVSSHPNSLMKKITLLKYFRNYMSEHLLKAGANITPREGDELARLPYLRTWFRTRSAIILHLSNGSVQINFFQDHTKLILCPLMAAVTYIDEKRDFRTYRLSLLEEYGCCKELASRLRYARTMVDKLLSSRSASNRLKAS

Row | Variant | effect of a mutation on the interaction
1 | S143D | disrupting interaction

Variants of: B1
Settings: with plk1_human PLK1, P53350
Remark: another data set of the same source

Row | Variant | effect of a mutation on the interaction
2 | S143A | disrupting interaction

Variants of: B1
Settings: with plk1_human PLK1, P53350
Remark: another data set of the same source

Row | Variant | effect of a mutation on the interaction
3 | S398A | decreasing interaction

Variants of: B1
Settings: with plk1_human PLK1, P53350
Remark: another data set of the same source

Row | Variant | effect of a mutation on the interaction
4 | T224A | decreasing interaction

Variants of: B1
Settings: with plk1_human PLK1, P53350
Remark: another data set of the same source

Row | Variant | effect of a mutation on the interaction
5 | T224D | disrupting interaction

Variants of: B1
Settings: with plk1_human PLK1, P53350
Remark: another data set of the same source

Row | Variant | effect of a mutation on the interaction
6 | T224E | decreasing interaction
